Experiment: yeast display, Sf9 membrane polyspecificity reagent, FACS + sequencing; frameworks hold sequencing errors
Method in brief: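 A nanobody's polyreactivity label depends on the gate it was sorted from. Yeast display cells were stained with 10% biotinylated, detergent-solubilized Sf9 membrane reagent for 1 hour at 4 °C, enriched on streptavidin microbeads and sorted by FACS. The low and high (top ~1%) gates were set on anti-HA fluorescence for expression and streptavidin fluorescence for reagent binding.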

QVQLVESGGGLVQAGGSLRLSCAASGYIFWSYAMGWYRQAPGKERELVAAISAYGCRTYYADSVKGRFTISRDNAKTTVYLQMNSLKPEDTAVYYCNADTGNHAYWYYGEFYYYTYDYWGQGTQVTVSS
polyreactivity (PSR sort gate): low polyreactivity

QVQLVESGGGLVQAGGSLRLSCAASGYIFYDYVMGWYRQAPGKEREVVAAISSGGNTNYADSVKGRFTISRDNAKNTVYLQMNSLKPEDTAVYYCAADRWGARRKQYHENGYWGQGTQVTVSS
polyreactivity (PSR sort gate): high polyreactivity

QVQLVESGGGLVQAGGSLRLSCAASGYIFYHYAMGWYRQAPGKERELVATISLGGGRTYYADSVKGRFTISRDTAKNTVYLQMNSLKPEDTAVYYCAADDGPGFDYWGQGTQVTVSS
polyreactivity (PSR sort gate): high polyreactivity

QVQLVESGGGLVQAGGSLRLSCAASGYIFYNAMGSYRQAPGKERELVAAISSSGGTTYADSVKGRFTISRDNAKNTVYLQMNSLKPEDTAVYYCAARSEFYWGWEYITYDYWGQGTQVTVSS
polyreactivity (PSR sort gate): low polyreactivity

QVQLVESGGGLVQAGGSLRLSCAASGYIFYSNDMGWSRQAPGKVRELVAAIDNGGSTTYADSVKGRFTISRDNAKNTVYLQMNSLKPEDTAVYYCATDNPFTSTTYDYWGQGTQVTVSS
polyreactivity (PSR sort gate): low polyreactivity

QVQLVESGGGLVQAGGSLRLSCAASGYIFYWYDMGWYRQAPGKEREMVAVIPTSGGSTYYADSVKGRFTISRDNAKNTVYLQMNSLKPEDTAVEYCNADSLFEYWDYDYWGQGTQVTVSS
polyreactivity (PSR sort gate): low polyreactivity

QVQLVESGGGLVQAGGSLRLSCAASGYIFYYNAMGWYRQAPGKERELVAVISRTGASTYYADSVKGRFTISRDNAKNTVYLQMNSLKPEDTAVYYCAVRYETVDGNWRYFYWGQGTQVTVSS
polyreactivity (PSR sort gate): high polyreactivity

QVQLVESGGGLVQAGGSLRLSCAASGYIFYYYAMGWYRQAPGKESELVAAISSTVSTNYADSVKGRFTISRDNAKNTVYLQMNSLKPEDSAVYYCAAAQRVNHVWYDYWGQGTQVTVSS
polyreactivity (PSR sort gate): low polyreactivity

QVQLVESGGGLVQAGGSLRLSCAASGYIIFTNAMGWYRQAPGKERQLVAAISTIDGSTYYADSVKGRFTISRDNAKNTVYLQMNSLKPEDTAVYYCATDTPFISSLAYDYWGQGTQVTVSS
polyreactivity (PSR sort gate): low polyreactivity

QVQLVESGGGLVQAGGSLRLSCAASGYIILGYAMGWYRQAPGKERELVAVINWSGGRTRYADSVKGRFTISRDNAKNTVYLQMNSLKPEDTAVYYCAAERSITYDYWGQGTQVTVSS
polyreactivity (PSR sort gate): high polyreactivity

QVQLVESGGGLVQAGGSLRLSCAASGYIINYNAMGWYRQAPGKERELVAAISSRGGSTYYADSVKGRFTISRDNAKNTVYLQMNSLKPEDTAVYYCNARYYSWYQRYDRRRGYDYWGQGTQVTVSS
polyreactivity (PSR sort gate): low polyreactivity

QVQLVESGGGLVQAGGSLRLSCAASGYIIYVYAMGWYRQAPGKERELVADISLNGGSTYYADSVKGRFTISRDNAKNTVYLEMNSLKPEDTAVYYCAADGWLYRTYWYYYWGQGTQVTVSS
polyreactivity (PSR sort gate): high polyreactivity

QVQLVESGGGLVQAGGSLRLSCAASGYILFAYAMGWYRQAPGKERELVATITTSGGITYYADSVKGRFTISRDNAKNTVYLQMNSLKPEDTAVYYCAAAEGGGLVTYDYWGQGTQVTVSS
polyreactivity (PSR sort gate): low polyreactivity

QVQLVESGGGLVQAGGSLRLSCAASGYILYGYAMGGYRQAPGKERELVAAISNDGSTYYADSVKGRFTISRDNAKNSVYLQMNSLKTEDTAVYYCNAREYGYFKYDYWGQGTQVTVSS
polyreactivity (PSR sort gate): high polyreactivity

QVQLVESGGGLVQAGGSLRLSCAASGYISFGYAMGWYRQAPGKEREFVAAISVGGGTTYYADSVKGRFTISRDNAKNTVYLQMNSLKPEDTAVYYCAGRSYSYAPRRGYWGQGTQVTVSS
polyreactivity (PSR sort gate): high polyreactivity

QVQLVESGGGLVQAGGSLRLSCAASGYISYVNPMGWYRQAPGKERELVAAISGRGGSTYYADSVKGRFTISRDNAKNTVYLQMYSLKPEDTAVYYCAADLYYSYYWGQGTQVTVSS
polyreactivity (PSR sort gate): low polyreactivity

QVQLVESGGGLVQAGGSLRLSCAASGYIYPPYAMRWYRQAPGKERELVATITRIGGSTYYADSVKGRLTMSRDNAKNTVDLQMNSLKPEDTAVYYCAARRDCGPYLSPENPAPMDYWGQGTQVTVSS
polyreactivity (PSR sort gate): low polyreactivity

Source: the nanobody polyreactivity screen of Harvey et al. (2022)
